T1: E-domain of betaglycan (BGe) (Rattus norvegicus, UniProt P26342 24-409)
T1 construct: also called sRIIIe; sBGe
T1 sequence: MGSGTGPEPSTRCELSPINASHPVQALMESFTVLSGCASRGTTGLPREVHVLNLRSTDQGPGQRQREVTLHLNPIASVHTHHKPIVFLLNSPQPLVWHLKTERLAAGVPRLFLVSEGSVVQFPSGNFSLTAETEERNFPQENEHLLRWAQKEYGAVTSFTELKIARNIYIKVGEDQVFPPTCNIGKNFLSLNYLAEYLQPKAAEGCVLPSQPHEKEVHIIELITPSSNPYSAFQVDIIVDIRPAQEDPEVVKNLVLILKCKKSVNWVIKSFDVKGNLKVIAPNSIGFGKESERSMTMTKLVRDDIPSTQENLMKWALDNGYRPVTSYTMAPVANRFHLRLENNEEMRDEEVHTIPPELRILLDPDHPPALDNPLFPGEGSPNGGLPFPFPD

B1: TGFβ type II receptor extracellular domain (sRII) (receptor)
chain: MIPPHVQKSVNNDMIVTDNNGAVKFPQLCKFCDVRFSTCDNQKSCMSNCSITSICEKPQEVCVAVWRKNDENITLETVCHDPKLPYHDFILEDAASPKCIMKEKKKPGETFFMCSCSSDECNDNIIFSEEYNTSNPD
notes: also called recombinant sRII; extracellular domain of RII

Legend:
[1] = target: T1, E-domain of betaglycan (BGe); experiment: electrophoretic mobility shift, 12% native polyacrylamide gel pH 8.8, Coomassie staining
Source text: (§1) Referring now to FIG. 1, binding of the E-domain of betaglycan (BGe) and the TGFβ type II receptor extracellular domain (sRII) to TGFβ2. A. Electrophoretic mobility shift assay in which an increasing amount of sRII has been added to a fixed amount of TGFβ2 and then applied to 12% native polyacryamide gel at pH 8.8. The relative molar amounts of TGFβ2 and sRII used in the assay are indicated above the gel. The protein bands were visualized by Coomassie blue staining. B. Electrophoretic mobility shift assay in which an increasing amount of BGe has been added to a fixed amount of TGFβ2 and then applied to 12% native polyacryamide gel at pH 8.8. The relative molar amounts of TGFβ2 and BGe (sRIIIe) used in the assay are indicated above the gel. The protein bands were visualized by Coomassie blue staining. The arrow labeled BC designates the binary complex formed between TGFβ2 and BGe. C. […] Purified TGFβ2 and BGe have also been applied to the SDS gel as controls. Relative molar amounts are indicated above the gel. The protein bands were visualized by Coomassie blue staining. On the basis of the relative amounts of TGFβ2 and BGe (sRIIIe) in the binary complex, together with the relative band intensities for the TGFβ2 and BGe (sRIIIe) controls, we tentatively conclude that BGe and the TGFβ2 homodimer bind with 1:1 stochiometry.

[2] = target: B1; experiment: as above
Source text: as §1

binding result [1] | binding result [2] | Binder
no binding | – | B1
– | no binding | TGFβ2 (ligand, also called TGFβ2 homodimer; transforming growth factor beta 2) ALDAAYCFRNVQDNCCLRPLYIDFKRDLGWKWIHEPKGYNANFCAGACPYLWSSDTQHSRVLSLYNTINPEASASPCCVSQDLEPLTILYYIGKTPKIEQLSNMIVKSCKCS

From patent US20070244042A1 (University of Texas, published 2007)
